Experimental data as given in patent US20240252614A1.

Experiments:
Details in all cases: remark: other sources report otherwise
hMPV075 (hMPV A), Q6WB98 [1] = assay: BLI, no stress
hMPV046 (hMPV A), Q6WB98 [2] = assay: BLI, no stress
hMPV052 (hMPV A), Q6WB98 [3] = assay: BLI, no stress
hMPV069 (hMPV A), Q6WB98 [4] = assay: BLI, no stress
hMPV063 (hMPV A), Q6WB98 [5] = assay: BLI, no stress
hMPV045 (hMPV A), Q6WB98 [6] = assay: BLI, no stress
hMPV067 (hMPV A), Q6WB98 = assay: BLI, 50C stress
hMPV059 (hMPV A), Q6WB98 = assay: BLI, 50C stress
hMPV075 (hMPV A), Q6WB98 [7] = assay: BLI, 50C stress
[8] = target: hMPV A F WT Control (hMPV A), Q6WB98; assay: BLI, 50C stress
hMPV046 (hMPV A), Q6WB98 [9] = assay: BLI, 50C stress
hMPV077 (hMPV A), Q6WB98 = assay: BLI, 50C stress
hMPV043 (hMPV A), Q6WB98 = assay: BLI, 50C stress
hMPV071 (hMPV A), Q6WB98 = assay: BLI, 50C stress
hMPV055 (hMPV A), Q6WB98 = assay: BLI, 50C stress
hMPV053 (hMPV A), Q6WB98 = assay: BLI, 50C stress
hMPV061 (hMPV A), Q6WB98 = assay: BLI, 50C stress
hMPV060 (hMPV A), Q6WB98 = assay: BLI, 50C stress
hMPV050 (hMPV A), Q6WB98 = assay: BLI, 50C stress
hMPV068 (hMPV A), Q6WB98 = assay: BLI, 50C stress
hMPV048 (hMPV A), Q6WB98 = assay: BLI, 50C stress
hMPV047 (hMPV A), Q6WB98 = assay: BLI, 50C stress
hMPV058 (hMPV A), Q6WB98 = assay: BLI, 50C stress
hMPV052 (hMPV A), Q6WB98 [10] = assay: BLI, 50C stress
hMPV044 (hMPV A), Q6WB98 = assay: BLI, 50C stress
hMPV054 (hMPV A), Q6WB98 = assay: BLI, 50C stress
hMPV066 (hMPV A), Q6WB98 = assay: BLI, 50C stress
hMPV062 (hMPV A), Q6WB98 = assay: BLI, 50C stress
hMPV049 (hMPV A), Q6WB98 = assay: BLI, 50C stress
hMPV069 (hMPV A), Q6WB98 [11] = assay: BLI, 50C stress
hMPV063 (hMPV A), Q6WB98 [12] = assay: BLI, 50C stress
hMPV045 (hMPV A), Q6WB98 [13] = assay: BLI, 50C stress
hMPV082 (hMPV A), Q6WB98 = assay: BLI, no stress
hMPV079 (hMPV A), Q6WB98 = assay: BLI, no stress
[14] = target: hMPV A F WT Control (hMPV A), Q6WB98; assay: BLI, no stress
hMPV087 (hMPV A), Q6WB98 = assay: BLI, no stress
hMPV085 (hMPV A), Q6WB98 = assay: BLI, no stress
hMPV081 (hMPV A), Q6WB98 = assay: BLI, no stress
hMPV089 (hMPV A), Q6WB98 = assay: BLI, no stress
hMPV090 (hMPV A), Q6WB98 = assay: BLI, no stress
hMPV097 (hMPV A), Q6WB98 = assay: BLI, no stress
hMPV088 (hMPV A), Q6WB98 = assay: BLI, no stress
hMPV083 (hMPV A), Q6WB98 = assay: BLI, no stress
hMPV078 (hMPV A), Q6WB98 = assay: BLI, no stress

B1: MPE8 mAb (antibody, V domains shown)
VH: EVQLVESGGGLVKPGGSLRLSCAASGFTFSSYSMNWVRQAPGKGLEWVSSISASSSYSDYADSAKGRFTISRDNAKTSLFLQMNSLRAEDTAIYFCARARATGYSSITPYFDIWGQGTLVTVSS
VL: QSVVTQTPSVSGAPGQRVTISCTGSSSNIGAGYDVHWYQQLPGTAPKLLIYDNNNRPSGVPDRFSASKSGTSASLAITGLQAEDEADYYCQSYDRNLSGVFGTGTKVTVL
With B1 the Response Shift (hMPV075 (hMPV A), Q6WB98 [1]) was 0.777 nm, the Response Shift (hMPV046 (hMPV A), Q6WB98 [2]) was 0.603 nm and the Response Shift (hMPV052 (hMPV A), Q6WB98 [3]) was 0.716 nm. For the same binder, the Response Shift (hMPV069 (hMPV A), Q6WB98 [4]) was 0.651 nm, the Response Shift (hMPV063 (hMPV A), Q6WB98 [5]) was 0.849 nm and the Response Shift (hMPV045 (hMPV A), Q6WB98 [6]) was 0.603 nm. For the same binder, the Response Shift (hMPV067 (hMPV A), Q6WB98) was 0.571 nm, the Response Shift (hMPV059 (hMPV A), Q6WB98) was 0.344 nm and the Response Shift (hMPV075 (hMPV A), Q6WB98 [7]) was 0.506 nm. The Response Shift [8] was 0.174 nm, the Response Shift (hMPV046 (hMPV A), Q6WB98 [9]) was 0.412 nm and the Response Shift (hMPV077 (hMPV A), Q6WB98) was 0.472 nm. For the same binder, the Response Shift (hMPV043 (hMPV A), Q6WB98) was 0.501 nm, the Response Shift (hMPV071 (hMPV A), Q6WB98) was 0.671 nm and the Response Shift (hMPV055 (hMPV A), Q6WB98) was 0.098 nm. The Response Shift (hMPV053 (hMPV A), Q6WB98) was 0.422 nm, the Response Shift (hMPV061 (hMPV A), Q6WB98) was 0.537 nm and the Response Shift (hMPV060 (hMPV A), Q6WB98) was 0.712 nm. The Response Shift (hMPV050 (hMPV A), Q6WB98) was 0.14 nm, the Response Shift (hMPV068 (hMPV A), Q6WB98) was 0.194 nm and the Response Shift (hMPV048 (hMPV A), Q6WB98) was 0.377 nm. For the same binder, the Response Shift (hMPV047 (hMPV A), Q6WB98) was -0.024 nm, the Response Shift (hMPV058 (hMPV A), Q6WB98) was 0.403 nm and the Response Shift (hMPV052 (hMPV A), Q6WB98 [10]) was 0.482 nm. The Response Shift (hMPV044 (hMPV A), Q6WB98) was 0.722 nm, the Response Shift (hMPV054 (hMPV A), Q6WB98) was 0.381 nm and the Response Shift (hMPV066 (hMPV A), Q6WB98) was 0.666 nm. The Response Shift (hMPV062 (hMPV A), Q6WB98) was 0.253 nm, the Response Shift (hMPV049 (hMPV A), Q6WB98) was 0.343 nm and the Response Shift (hMPV069 (hMPV A), Q6WB98 [11]) was 0.355 nm. It also gave a Response Shift (hMPV063 (hMPV A), Q6WB98 [12]) of 0.57 nm, a Response Shift (hMPV045 (hMPV A), Q6WB98 [13]) of 0.139 nm and a Response Shift (hMPV082 (hMPV A), Q6WB98) of 0.949 nm. For the same binder, the Response Shift (hMPV079 (hMPV A), Q6WB98) was 0.887 nm, the Response Shift [14] was 0.926 nm and the Response Shift (hMPV087 (hMPV A), Q6WB98) was 0.979 nm. It also gave a Response Shift (hMPV085 (hMPV A), Q6WB98) of 0.877 nm, a Response Shift (hMPV081 (hMPV A), Q6WB98) of 0.955 nm and a Response Shift (hMPV089 (hMPV A), Q6WB98) of 0.959 nm. It also gave a Response Shift (hMPV090 (hMPV A), Q6WB98) of 0.903 nm, a Response Shift (hMPV097 (hMPV A), Q6WB98) of 0.918 nm and a Response Shift (hMPV088 (hMPV A), Q6WB98) of 0.974 nm. For the same binder, the Response Shift (hMPV083 (hMPV A), Q6WB98) was 0.805 nm and the Response Shift (hMPV078 (hMPV A), Q6WB98) was 0.955 nm.
